Experimental data published in patent publication US12123042.

Test system: cytochrome C

Sequence of S. rebaudiana CPR1 (cytochrome P450 reductase) (chain, as listed by the source): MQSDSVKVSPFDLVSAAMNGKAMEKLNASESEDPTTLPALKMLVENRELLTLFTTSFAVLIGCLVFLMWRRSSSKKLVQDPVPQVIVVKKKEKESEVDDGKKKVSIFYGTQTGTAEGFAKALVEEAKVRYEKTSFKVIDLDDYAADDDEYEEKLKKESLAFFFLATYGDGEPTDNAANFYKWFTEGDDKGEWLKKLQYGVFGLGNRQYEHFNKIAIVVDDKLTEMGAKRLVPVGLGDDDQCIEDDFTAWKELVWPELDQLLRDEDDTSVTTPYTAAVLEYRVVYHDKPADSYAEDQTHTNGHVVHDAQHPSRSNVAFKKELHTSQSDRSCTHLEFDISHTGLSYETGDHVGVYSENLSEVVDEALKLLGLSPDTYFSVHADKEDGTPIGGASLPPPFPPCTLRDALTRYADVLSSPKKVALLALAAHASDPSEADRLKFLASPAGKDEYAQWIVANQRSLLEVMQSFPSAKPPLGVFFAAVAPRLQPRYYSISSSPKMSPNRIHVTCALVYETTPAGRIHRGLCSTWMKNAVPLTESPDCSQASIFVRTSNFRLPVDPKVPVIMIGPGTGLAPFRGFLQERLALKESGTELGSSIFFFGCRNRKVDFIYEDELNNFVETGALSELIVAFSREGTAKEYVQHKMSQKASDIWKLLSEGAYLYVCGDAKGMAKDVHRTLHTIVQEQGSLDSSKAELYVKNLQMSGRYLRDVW

“S. rebaudiana CPR1 (cytochrome P450 reductase)” was tested, and the “CPR activity (cytochrome C reductase assay, increase in absorbance at 550 nm, units/mg microsomal protein)” value was 7- and 14-fold higher activity, respectively, compared to the negative control.
